Reference: PMC11591946 (2024)

Biological target: alpha-synuclein (Homo sapiens, UniProt P37840)
Test: SPR

| Binder | Kd [µM] |
| --- | --- |
| ELAQMGPEGMGLEDPNGS (preformed fibrils) [ELAQMGPEGMGLEDPNGS peptide] | 194 |
| ELAQMPYYYWKDPNGS (preformed fibrils) [ELAQMPYYYWKDPNGS peptide] | 133 |
| PYYYWKELAQM (preformed fibrils) [PYYYWKELAQM peptide] | 55.2 |
| PYYYWKDPNGS (preformed fibrils) [PYYYWKDPNGS peptide] | 39.2 |
| EQALMPWIWYWKDPNGS (preformed fibrils) [EQALMPWIWYWKDPNGS peptide] | 28.4 |
